Source: PMC2120686
Where “and” joins values, the source holds several entries; their conditions need not be identical. Equal entries are not always repeated. Each block holds one substance with its values, some of them ahead of it.

Experiments:
[1] = target: titin (rabbit); experiment: ELISA
[2] = target: titin (rabbit); experiment: light scattering
[3] = target: dansylated LMM (rabbit); experiment: fluorescence polarisation
[4] = target: light meromyosin (LMM) (rabbit); experiment: electron microscopy
[5] = target: J peptide (15-kD CNBr fragment of LMM) (rabbit); experiment: ELISA
[6] = target: K peptide (30-kD CNBr fragment of LMM) (rabbit); experiment: ELISA
[7] = target: light meromyosin (LMM) (rabbit); experiment: ELISA

maximum inhibition of titin binding to LMM [1]: 60%
Substance: J peptide (15-kD CNBr fragment of LMM) (domain or fragment)

stoichiometry N [2]: 25 to 50
Substance: light meromyosin (LMM) (domain or fragment)

Substance: titin (natural protein)
Kd [3]: 15 nM | molecular-binding constant [3]: 400 nM | percent of molecules closely associated [4]: 20% | Kd [5]: 30 nM and 20 nM | fold lower affinity than the 15-kD peptide [6]: 100 fold | Kd [7]: 12 nM
